The text below walks through data of US20250326807A1 (published 2025).

Where two headings read alike, the source gives them in different places. Ends that are not written are not given here. Where only a bound is given, the exact number is not on record here.

The target of test [1] is T1, Recombinantly expressed fused calprotectin (His6-linker-S100A9-linker-S100A8), product code B-RCAL, BÜHLMANN … (human, UniProt P06702 1-114; P05109 1-93).
T1 chain: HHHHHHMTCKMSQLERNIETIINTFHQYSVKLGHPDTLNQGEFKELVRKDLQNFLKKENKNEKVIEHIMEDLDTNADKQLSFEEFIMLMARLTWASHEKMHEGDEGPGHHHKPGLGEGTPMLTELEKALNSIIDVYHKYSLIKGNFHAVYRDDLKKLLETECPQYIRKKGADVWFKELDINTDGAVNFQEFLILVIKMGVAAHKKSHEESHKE
Briefly: fluorescence polarization.

Test [2] addresses T1, Recombinantly expressed fused ….
Test [3] shares this target. Briefly: fluorescence polarization. A general note: Fluorescence polarisation rises when a labelled molecule tumbles more slowly, as on binding a larger partner.
For test [4] the target is unchanged. Nature of the test: fluorescence polarization.
Test [5] shares this target. Briefly: fluorescence polarization.
Another test concerns the target P9 β-Ala. Briefly: SPR. Background: In SPR one partner is held on a chip, and binding of the other changes the refractive index at the surface.
A further test addresses Y16 D-Ala. Nature of the test: SPR.
The target of a further test is Y16 β-Ala. Briefly: SPR.
For a further test, the target named is Q12 β-Ala. Nature of the test: SPR.
The target in a further test is F11 D-Ala. Nature of the test: SPR.
A further test deals with F8 D-Ala. Briefly: SPR.
Another test concerns the target M10 β-Ala. Nature of the test: SPR.
Another test addresses F11 β-Ala. Briefly: SPR.
The next test deals with Q12 D-Ala. Briefly: SPR.
The next test addresses M10 D-Ala. Nature of the test: SPR.
The next test concerns the target F8 β-Ala. Nature of the test: SPR.
The target in a further test is P9 D-Ala. Nature of the test: SPR.
Test [6] deals with T1, Recombinantly expressed fused …. Nature of the test: fluorescence polarization.

B1: ACRTCPLFTCPSCG (peptide)
peptide: ACRTCPLFTCPSCG
modifications: not fully specified; cross-linked between cysteines (linker not named); N-terminal 5(6)-carboxyfluorescein; synthesised on rink amide AM resin
As to B1, the Kd in [1] was 89 nM.

B2: Linear peptide 3 (RSPESVAFPMFQSHWYSG), all cysteines replaced by serines (peptide)
peptide: RSPESVAFPMFQSHWYSG-NH2
modifications: also: N-terminal 5(6)-carboxyfluorescein only in the fluorescence polarization assay version
As to B2, the Kd in test [2] stood at 25.5 nM.

B3: GCDLAHQPCPLYKCTKCP (peptide)
peptide: GCDLAHQPCPLYKCTKCP
modifications: not fully specified; cross-linked between cysteines (linker not named); N-terminal 5(6)-carboxyfluorescein; synthesised on rink amide AM resin
Turning to B3, the Kd in [3] came out at 10 nM.

B4: SCQCPWDLFSQHSLSDCCD (peptide)
peptide: SCQCPWDLFSQHSLSDCCD
modifications: not fully specified; cross-linked between cysteines (linker not named); N-terminal 5(6)-carboxyfluorescein; synthesised on rink amide AM resin
Take B4: the Kd in test [3] was determined as 25 nM.

B5: CTQSPCPLYDSHQCSCK (peptide)
peptide: CTQSPCPLYDSHQCSCK
modifications: not fully specified; cross-linked between cysteines (linker not named); N-terminal 5(6)-carboxyfluorescein; synthesised on rink amide AM resin
Turning to B5, the Kd in [4] came to 38 nM.

B6: VCQQTASRCPVWECQRCP (peptide)
peptide: VCQQTASRCPVWECQRCP
modifications: not fully specified; cross-linked between cysteines (linker not named); N-terminal 5(6)-carboxyfluorescein; synthesised on rink amide AM resin
Turning to B6, in test [5], the equilibrium dissociation constant (Kd) is 55 nM.

B7: VCPCPLFRAHGCSRFSCQ (peptide)
peptide: VCPCPLFRAHGCSRFSCQ
modifications: not fully specified; cross-linked between cysteines (linker not named); N-terminal 5(6)-carboxyfluorescein; synthesised on rink amide AM resin
Regarding B7, the dissociation constant (Kd) in [4] was found to be 22 nM.

B8: calprotectin (other)
chain: HHHHHHMTCKMSQLERNIETIINTFHQYSVKLGHPDTLNQGEFKELVRKDLQNFLKKENKNEKVIEHIMEDLDTNADKQLSFEEFIMLMARLTWASHEKMHEGDEGPGHHHKPGLGEGTPMLTELEKALNSIIDVYHKYSLIKGNFHAVYRDDLKKLLETECPQYIRKKGADVWFKELDINTDGAVNFQEFLILVIKMGVAAHKKSHEESHKE
Consider B8, for which the dissociation constant Kd with P9 β-Ala, with Y16 D-Ala, with Y16 β-Ala, with Q12 β-Ala, with F11 D-Ala and in the test with F8 D-Ala was more than 10000 nM throughout. Besides, the dissociation constant (Kd) in the test with M10 β-Ala, in the test with F11 β-Ala, with Q12 D-Ala, in the test with M10 D-Ala, in the test with F8 β-Ala and with P9 D-Ala was more than 10000 nM throughout.

B9: TCPLNRTQCPLYACTTCP (peptide)
peptide: TCPLNRTQCPLYACTTCP
modifications: not fully specified; cross-linked between cysteines (linker not named); N-terminal 5(6)-carboxyfluorescein; synthesised on rink amide AM resin
Consider B9, for which the Kd in [5] is 34 nM.

B10: Peptide 3 (RCPECVAFPMFQCHWYCG), phage display derived, cross-linked between cysteines (peptide)
peptide: RCPECVAFPMFQCHWYCG
modifications: not fully specified; cysteines cross-linked by a chemical linker (linker and isomer not named); N-terminal 5(6)-carboxyfluorescein; synthesised on rink amide AM resin
On to B10, for which the Kd in test [6] worked out at 23 nM.

As a reminder, the Kd is the concentration at which binding is half-saturated.
